Reference: patent publication US9975943B2, “Polypeptides” (AFFIBODY AB, priority 2013, dated 2018)

Assays:
[1] = Pharmacokinetic study in mice; format: in vivo, mouse; settings: male NMRI mice; i.v. 92 nmol/kg; serum; Z variants as fusions to PP013-Z03638
Procedure: Z11947, Z11946 and Z11948 fused to PP013-Z03638 were administered intravenously (i.v.) to male NMRI mice (Charles River, Germany) at a dose of 92 nmol/kg body weight. Sera from groups of three mice were obtained at 0.08, 6, 18, 78, 120, 168 and 240 hours. The concentration of respective Z variant was determined by ELISA.
Half-area 96-well ELISA plates were coated at 4° C. overnight with 50 μl/well of an Z specific goat antibody (produced in-house) diluted to 4 μg/ml in coating buffer (50 mM sodium carbonate, pH 9.6). The antibody solution was poured off and the wells were blocked with 100 μl of PBSC for 1.5 h at RT. The sera were diluted in PBSC plus 1% mouse serum (matrix) from 1:100 to 1:51,200 in a two-fold dilution series in a dilutions plate. […] Bound Z variants were detected with 50 μl/well of rabbit anti-PP013 Ig (produced in-house) diluted to 4 μg/ml in PBSC. […] After 15 minutes of development, the absorbance was measured at 450 nm using a multi-well plate reader (Victor^3). The absorbance values were analyzed using GraphPad Prism 5 to determine the concentrations (cubic-spline curve fit) and area under curve (AUC). […] The resulting curves followed a two compartment model and the terminal half-life was calculated as In2 divided by the slope based on the last three time points.

human FcRn = human FcRn (Homo sapiens, UniProt P55899); experiment: Biacore analysis of Z variants fused to PP013-Z03638; format: binding; parameters: made in house; host or cells: human SKOV-3 cells, lentivirally transduced, secreted; purified on immobilized human IgG; settings: pH 6.0; 40, 160 and 640 nM
human FcRn, sequence (P55899 24-290): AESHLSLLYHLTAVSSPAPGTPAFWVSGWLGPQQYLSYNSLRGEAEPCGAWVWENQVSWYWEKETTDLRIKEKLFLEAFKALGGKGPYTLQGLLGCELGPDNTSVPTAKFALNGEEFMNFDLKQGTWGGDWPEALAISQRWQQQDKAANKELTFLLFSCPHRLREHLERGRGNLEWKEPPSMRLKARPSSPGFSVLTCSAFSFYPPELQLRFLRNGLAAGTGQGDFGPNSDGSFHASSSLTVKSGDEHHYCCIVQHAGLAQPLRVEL
human FcRn, sequence (P61769 21-119 partner): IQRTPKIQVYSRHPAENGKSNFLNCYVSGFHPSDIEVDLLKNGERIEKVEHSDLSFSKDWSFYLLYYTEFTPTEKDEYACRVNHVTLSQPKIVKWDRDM
Procedure: Expressed and purified Z variants fused to PP013-Z03638 were assayed against human FcRn at pH 6.0 essentially as described for the kinetic analysis in Example 3. The Z variants and the negative control Z03638-PP013 were injected at 40 nM, 160 nM and 640 nM during 1 minute followed by dissociation for 2.5 minutes and equilibration for 1 minute. Kinetic constants and affinities were determined for the Z variants using the BiaEvaluation software.

Substance: Z03638-PP013: negative control molecule [Z03638]-GAP(G4S)4TS-[PP013]; Taq polymerase binding Z variant fused to albumin binding polypeptide
- terminal half-life [1]: approximately 43 hours
- binding to FcRn (human FcRn): negative against FcRn
